From a protein production outcome set (Wang et al. 2014)

Test: label from the status in PepcDB records
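Further: failed if final PepcDB status was selected cloned or expressed and not failed if soluble or beyond.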

| Sequence | protein production |
| --- | --- |
| MQFLGRSISKSIRPSLNSTARKSWVLSSQQFLSTSSTESSSRTRGGGGGNRAEKSSEEWPRPMEVPYQPKIANSIDLIGYVHQPVQFDSTLDGKFWAGTVISHEPSSDSKSESDSSSNFWIPVLFEGDLAHTANSYLKKNDRVHITGQILGDVIQSGANSDQAHVQLFKSFHGSFSHQVMVRDLHYIEGSKAMPKVLPTLDQNEGVLKHSASVQRGREFGTNLWFDLVDKPNEWCDYREMKQNGSVNPKHPDFKKKDGSQALWLNNAPTEILSELKDVKFDIPKYAKQPKAGEESWKDLVDNMNKWWDNRVDKRTPKSPDFKHKETGVGLWLSDSPSWVLEKLPPPKSKTSDIYGVQEMF | failed |
| MQFLNQSLGFFNKGCFEPIDRNFITESYQALKPIEEIQNKYNKHDNDSFLNELRDSMVALYLDYELINIQKHGLDAKRSSSDEFLEIKQVSFQSQLIKEFEFKMKPIDSKEQELINLFNLKFGHFSWENYLA | failed |
| MQFNPTLDSIKTYEAGKPIELVVREYGIKPQNVIKLASNENPFGASPKVIEAIAKEAVNAHRYPDDSMFELKEGLAGRFGVKSENVIIGSGSDQILEMAVHAKCNASSKVLMSKTTFAMYDVYSRQVGARILRTPSDQHHLGEFWEIYQKERPEILFLCLPNNPLGECLDREEVYDFLQKIDDETLVIVDGAYQEYAAFKDSQKRIDPKDLIERFPSSIFLGTFSKAFGLGGMRVGYGIAQPSIIQALMKMRAPFNITTLSLKAAIEALKESAYVEETIKENFKEMRRYEEFALAQGIDFIPSYTNFITLLLKNRVDSSEFSQWLLERGLIVRNLKSYGINAIRITIGRSLENDRCFELMQEYLHQF | failed |
| MQFPSIEDLRARNTMKWTRYGQGVLPLWVAESDFSTCPAVLQAITDAVQREAFGYQPDGSLLSQATAEFYADRYGYQARPEWIFPIPDVVRGLYIAIDHFTPAQSKVIVPTPAYPPFFHLLSATQREGIFIDATGGINLHDVEKG | failed |
| MQFSTTPTLEGLTIVEYCGVVTGEAILGANIFRDFFAGIRDIVGGRSGAYEKELRKAREIAFEELGSQARALGADAVVGIDIDYETVGQNGSMLMVSVSGTAVKTRR | not failed |
| MQGGSSGIGYGLKYQARCISDVKADRDHTSFLTGTLSLKEENEVHLLRLSSGGSELLCEGLFSHPNEIWDLASSPFDQRIFSTVFSTGDSYGAAIWQIPEPYGQSNSSTLECVASLDAHVGKINCVLWCPSGNSDKLISMDEQNLVFWSLDSSKKSAEVLSKESAGMRHSLSGGAWNPHDVNSVAATSESSIQFWDLRTMKKNNSIERAHVRNVDYNLKREHILVSADDESGIHLWDLRKTKFPVQELPGHTHWTWAVRCNPEYEELILSVGTDSAVNLWFASASSEHKTSESPVEASRQRVNPLLNSYTDYEDSVYGLAWSSREPWIFASLSYDGRVVIESVKPFLPRR | not failed |
| MQGISASPERMNAQQRAAHVRQVVLARGDELRRRFPLLRHQDALGAGILAFALSGMLGSALLYVTGHLAWWACLLLNAFFASLTHELEHDLIHSMYFRKQRLPHNLMLGLVWLARPSTINPWVRRHLHLNHHKVSGSESDIEERAITNGEPWGIARLLMVGDNMMAAFIRLLRAPGARRKLGILVRTLAVYAPLALLHWGAWYVFLGFHGANGVAALLGSPIQWSQDTASLMHYVDIAVVVIIGPNVLRTFCLHFVSSNMHYYGDIEPGNVIQQTQVLNPWWMWPLQAFCCNFGSTHGIHHFVVREPFYIRQMTASVAHKVMAEMGVRFNDFGTFARANRFTRQEREAMQPAHNARA | failed |
| MQGNLTALLITAIIVLTVVCIGFLAGRDKSSRTSVEEWSVGGRRFGGLLVWFLVGADLYTAYTFLGLTSTAFTGGSVAFFAIPYSVLAYFIAYFFLPKLWKVAKIHKLTTLADYARERFNSKLLASLVAIVGVLMLIPYICLQLSGIQDTLQVAGTGYINVKFVVIISFILVALYTFFSGIKGPTYTAIIKDILVWVIMLFMVVSLPLIHFNGWTPMIDTLVKEAPQMLTIPSEGPKGIPWFITASIVSALALFMWAHAATGVFTAKSADAVRKNSMFLPLYNIVLILVIFLGFIAFLVLPEDTNPRLALLHLIQTSYGGVAQGFAYATIALASLIPCSIMAIGASNLFANNLYRDLIHPNVSQSKLTLVTRSMVFVVIGLALLFGMLFPTALVTLQLLGVSGMVQIFPAIAVSLFWKNQTKEATVIGLLAGLAVTFIVYITQSAHGIYEGFWGLAANMIAVVILNPLFVKNAGSNPVIEGLFGKKQDANPNQKGA | failed |
| MQGWLVIPVSLAYLGVLFLIAWYGDRQTRWLANWRPWIYSLSIAVYCTSWTFYGTVGQASVNPWSFLPIYIAPILMFVFGWRVLARLILIAKREHITSLADFIAARYGKSQGLAVAVTVIAVLGILPYIALQLRGITMGLNIVAPDLMTVYGYQESHVSWFVVLALALFTMLFGTRHIDNTEHHRGMMMAIAFESIVKLVAFLCVGVFIAYLAWRTDGLELSTIAASTYQAPNWPTLLIHTLLTMIAIVCLPRQFHTMVVENERPQDLHTARWLFPVYLLLMSLFVLPIAWTGQGLLPNTSPDTFVISLPVFAGAHDIALLAFLGGTSAASGMVIVSTIALAIMVSNDLVMPLLLRRMRLSQRTHRHFSGLLVVIRRTLILLLLFGAWGFYLVLDSIPSLSAIGFLSFSAITQFAPAIFGGMYWREGNRKGVYVGLAVGFTLWLITLMSATDMLAGDASNNVLLWVITPPDWLVALGLKSADWGMLLSVTLNTLCYIGVSLVTRASLSERLQAAAFVGTPLPENENMSLYQSRVTVGELEMLASRFVGRTRVRNAFAQYWSQQRETLLPNQQASSALIRHTERVLAGVFGASSAKLVLTSALQGRKMQLEEVATIVDEASELYDFSRGLLQGAIEHIGQGIAVVDKQLRLVAWNQRYLELFEFPPGLIQVGRPIADVIRHNAQQGLCGPGDPEDHVRRRVYHLEQGTSHTSSRVRADGRVIEVQGNPMPGGGFVMSFTDITVFREAEQSLKMANETLEERVLQRTLELEKLNKQLVTATQRSERESQSKSRFLAAVSHDLMQPLNAARLFASSLSEVAKEAEVQKLAHHIESALGAAEDLISDLLDISRLESGKIDLHPHSFAIMDVLSNLNAEFSALAAKQGVQFSLVPSLLWVHSDPKLLRRVIQNFLTNAFRYNPNGKVILGVRRVATGQVRIDVWDNGIGIEQDKQQEIFEEFNRGGQVRSDQGLGLGLAISKGIAHVLGHHISMRSWPGQGSVFSITLDRAQPMPSSLTQTVAMVNEKGSELQHLRVLCVDNEPDILVGMRDLLERWGCEVKTATDIHGSLKALEGQWIPDVILSDYRLDNGRTGLEVLQQCRLRLGDCFAGVIISADRNPDILDGIESSGFRFMAKPIKPLKLRALLNSLS | failed |
| MQHLREWLSDWFRRILPNAQAVSFAILLVVGFIVVVSLAKMLMPVFAAGIIAYLLDGLVEIGERRKLPRLVSVIVVYLLFLALLLVVFIGLLPLLYQQTLQLIEQAPSWVNRGQVLIMELPERYPDYITQEQVNDLIGAIRAELISYGQSMLTYSYASLVSLITVVVYFILVPLLVFFFLKDRDRILGWFTQYLPRDRNLSNRVWKEVDMQIGNYVRGKFVEIVILFAASFVTFSLMGLNYALLLAVLMGISVIIPYVGATLVTFPVMIVAFFQWGVSDDFWYLMLAYAIIQALDGVMLVPLLFSEVVNLHPVAIIVAILFFGGWWGFWGVFFAIPLATLVKAVLSAWPRLGEGEMPAAGGP | failed |
| MQIRVYDEGAVQDCLFVLGWGNRCRHRTVQWLIDQLTTAYRVHAVELPTHITDYRREWVGPVQEYAADLGRFDLLGHSAGGLTAAHLDADGIGNRVYLSPWWDSDFPVPGPVLDAIASLPITKPFIPIDTLDADAIGDLATAQQLAEAPSSVSPAFLRTVFRAQRSLPPARDTAAAFCSLTDTVVDPRAVGERLPADRIRLYDGGHELFSSSGREDTAETVIDTLQHGPDAL | failed |
| MQIVTDKNKVALYYKDIAVTYKEFILNTKKIKQFTKIKEFTNNMIYMENRPELLYSFFAIWDSRATCVCIDASSTAVELTYYIDNSDVVKIFTTKMQVEKVKGALSILSKQIEIIVVDEINLSEIKIDENSSENLVINSPEKEDTALILYTSGTTGKPKGVMLTFDLEHHHHHH | failed |
| MQKFFQRIWQWIQQLFAPLVGGPGPGTKSLQELPPLSDTDYEFLFNQLLEGIAHGWHEGRILKFFQQLDHRCRPKQWLDWLDRFQTTVLASPSPNLVLAARMMRLGELAQSFPQIAPIGDKSQRIGRELYARQSPPQMDTVWEYDGPDLVSIDQAQGQMETFTFDELVQRLPQDAALATHFAGFLGIESTDPQVILRALMEKFAIPEEMLTEALNHGGESSSAPVDSLVEDQGTASALAQEELWPLVDPVTIDNSQFENNQEPHTAEDWLNLGIQQAQRGELETAIASWGEAISLNPQMTSAWQNRGSALGVMGKLEEALANFDEALAQNPDDAEVWLSRGLLLEAMERKEEAIPSYEKALTLEPTLPEAQERLEELQGLLSQD | failed |
| MQKLTRINDFNEVLNSRKSVKVFDENYKIPREEMDEIITKATKAPSSVNMQPWRIAVVQSDEMKEKVKESFGFNSRQLTTSSAMLIIFGDLQNYEKAEQIYGDAVEQQLMTEDIKAQLLDWILPYYKNLSREGMKDIVNIDSSLMAMQLMLTAKAHGYDTNPIGGFDKENIADIIGYDSDRYVPVLAIAIGKKAQDAHDSVRLPIDDVREFL | not failed |
| MQKVVLATGNVGKVRELASLLSDFGLDIVAQTDLGVDSAEETGLTFIENAILKARHAAKVTALPAIADDSGLAVDVLGGAPGIYSARYSGEDATDQKNLQKLLETMKDVPDDQRQARFHCVLVYLRHAEDPTPLVCHGSWPGVITREPAGTGGFGYDPIFFVPSEGKTAAELTREEKSAISHRGQALKLLLDALRNG | not failed |
| MQLALVLSELGEYQVSNQWLLKIIHDLDETMYDCLYFLANNYACLGLFREATQYAEQYLTCESDGEFADDAADLLELLKLDRHDVSEEQEQLITMQERARHLLEQERFAEAIEALEAIVSRYPEFWSAHNNLALAYFYNGDVERAKQKLLEVLKRDPGNLHALCNALVFAYYLHDQEEVAALCETLASVYPFFREHQYKLGATFALVGRFDSAFRWLYRLYKNGFDGDGPFYYWLAYSAYHIGHESLARQVWETLTTLHPEKLEHHHHHH | failed |
| MQLINLRYISNWRVLLIAVVVLLCLLLSSQLGVVKPYEIVDPLDILGEGSTLFLTILIVIFMVTDRPRGNVTNLFYSGGLLLIFSMTLDVLDEFFRYPDALRLLSWLESFPLPVGLIIISFAAAEWRRENKMLSRQLMVREKNLRSHQWVDPLTSLYTTPYFIKLVEREIALQNSTDAESTVLVSVNFKNFAQYNHEMGTKAGDELLHQASELMVLLLRPQDCLCREHSDHFLILLPQTRLSQADRLMKVIAQNLNSELELPNYMSVEVHTHRVEELSAVDAITALHTQVEEMTHYAPLAN | failed |
| MQLRTKLVIYSTVCCAFGVLLTLATMKYLFSTSSPEVATPATLPDVQLPELDLAQLQDSVAAIESAIKNTEQFQQAFSLQERLRADQIKHELQKLEQLKQEQLQIKLYKLELLKQGLFNPAPHPANMVPALPVVEQSKLPPLSLDPQAEHTPPIFELVLVILLACSVCALGVAWFTRHLARSLDALEVGLLNFNDNDFSVSIPTNGEGQLKTLAELFNHSAAKLRQERQYIYQRELLLDKVIQSSPNVMLLLNDHQRLMYANDAARHLFQIKGKMEGLSLEELLQELPEALALALKQEKSGLFTMGEDDAETWYLSRGQFLLNNQQHNLILLKQMTRELNRQEVAVWKKVIRIISHELNNSVAPIASMVNSGRLLTKDLDNPKLKLIFDTIESRTNHLSQFIYNYARFAKLPLPQRRKVAWSQLIEQLTQHYPFSLTHELPIEDGYVDQGQMEQVLLNLLKNAHESGSNPEEVTLSIRYQKMVDGGGFSIKIEDRGSGMSEEVLEQALLPFYSTKQSGTGLGLPLCREIIEAHDGSISMHNRTEGGLSVLLWLPQ | failed |
| MQLYYLGPKGTFSYLACRQYFSENEATFQPKSNLFEVIKAVADDDTSIGVVPIENSIEGTINIVADALAQQDVFAHGEIRLDINFALYGNGTDSISDIKKVYSIAPAISQTTNYIHQHQFDYDYVDSTIQSLTKIENGVAAIAPLGSGEAYGFTPIDTHIEDYPHNVTRFLVIKNQQQFDQNATSLMFLITPMHDKPGLLASVLNTFALFNINLSWIESRPLKTQLGMYRFFVQADSAITTDIKKVIAILETLDFKVEMIGAFN | not failed |
